Target: BAG3 (Bcl-2 associated athanogene protein 3) (human) (UniProt O95817)
Assay: SPR; BIACORE X; BAG3 amine-coupled to a CM5 chip (3400 RU); running buffer 10 mM HEPES pH 7.4, 150 mM NaCl, 3 mM EDTA, 0.005% P20; 10 uL/min; Langmuir 1:1 fit

Sequence of BAG3 (Bcl-2 associated athanogene protein 3), O95817 1-575 (natural protein; other documents disagree on this pair) (O95817 whole entry): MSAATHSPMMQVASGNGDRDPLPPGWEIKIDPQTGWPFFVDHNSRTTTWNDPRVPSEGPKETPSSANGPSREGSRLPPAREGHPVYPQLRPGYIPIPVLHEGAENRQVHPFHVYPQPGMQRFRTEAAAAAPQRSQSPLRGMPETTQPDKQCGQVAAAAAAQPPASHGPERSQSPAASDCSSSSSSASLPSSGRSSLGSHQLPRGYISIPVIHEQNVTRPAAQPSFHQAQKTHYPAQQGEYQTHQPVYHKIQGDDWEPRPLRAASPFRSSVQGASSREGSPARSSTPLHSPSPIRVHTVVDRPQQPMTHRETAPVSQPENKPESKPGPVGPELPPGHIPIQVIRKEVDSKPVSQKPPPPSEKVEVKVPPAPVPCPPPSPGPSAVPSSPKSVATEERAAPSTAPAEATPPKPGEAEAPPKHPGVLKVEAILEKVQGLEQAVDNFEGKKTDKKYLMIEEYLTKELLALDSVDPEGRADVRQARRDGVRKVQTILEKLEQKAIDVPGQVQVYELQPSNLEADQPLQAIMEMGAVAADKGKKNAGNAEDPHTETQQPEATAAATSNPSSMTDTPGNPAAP

BAG3 (Bcl-2 associated athanogene protein 3), O95817 1-575 (natural protein; other documents disagree on this pair)
Ka: 5.3e+07 M⁻¹ | Kd: 19 nM | koff: 0.0003 s⁻¹ | kon: 16000 M⁻¹ s⁻¹

From publication PMC10273338
